Molecular target: Q13093
Experiment: estimated from dilution inactivation (residual CAM activity against enzyme concentration), self-association

B1: recombinant lipoprotein-associated phospholipase A2 (rLp-PLA2) expressed in HEK293 cells (protein)
chain: FDWQYINPVAHMKSSAWVNKIQVLMAAASFGQTKIPRGNGPYSVGCTDLMFDHTNKGTFLRLYYPSQDNDRLDTLWIPNKEYFWGLSKFLGTHWLMGNILRLLFGSMTTPANWNSPLRPGEKYPLVVFSHGLGAFRTLYSAIGIDLASHGFIVAAVEHRDRSASATYYFKDQSAAEIGDKSWLYLRTLKQEEETHIRNEQVRQRAKECSQALSLILDIDHGKPVKNALDLKFDMEQLKDSIDREKIAVIGHSFGGATVIQTLSEDQRFRCGIALDAWMFPLGDEVYSRIPQPLFFINSEYFQYPANIIKMKKCYSPDKERKMITIRGSVHQNFADFTFATGKIIGHMLKLKGDIDSNVAIDLSNKASLAFLQKHLGLHKDFDQWDCLIEGDDENLIPGTNINTTNQHIMLQNSSGIEKYN
concentration at which roughly half is monomer and half aggregate or oligomer: At the concentration at 2.5 µg/ml or 53 nM, roughly half of rLp-PLA2 is in monomer and half forms the aggregate or oligomer as estimated

— patent US20160334404
